In US20070042345:

System: F2C intracellular calcium ion indicator protein (GAP43 palmitoylation signal - ECFP - two alpha-spectrin calpain sensitive sequences - EYFP)

Substance: purified µ-calpain (Calpain I, Calbiochem, California, U.S.A.)
- Western blot for fragmented F2C after incubation with purified µ-calpain in Ca-EGTA buffer: fragmented F2C signal was not detected (data not shown)
